{
  "source": "IntAct's records for PubMed 28533415",
  "parents": {"B1": {"name": "Nucleus-vacuole junction protein 1 (Saccharomyces cerevisiae), P38881 (parent)", "chain": "MTRPPLVRGIFSLGLSVAVLKGVEKTVRKHLERQGWIEPQKVDYELIFTIDRLKNLVDNKREALTAEQPDAGELSWRKVFNFISRQSSELDTRIYVLILLLSFLLPIAWTVLDGDRETTLEDKDNDCNVDLIENERRLKHYNDGERAVLQFGKNRSEPIILSYKDMNVLEGEHEFTSKEEHSNSHLTSKSENALNQVGSEDLLGCHLEKQLEEDKNEPNGEADGEDDNNREKDCSSSSEVESQSKCRKESTAEPDSLSRDTRTTSSLKSSTSFPISFKGSIDLKSLNQPSSLLHIQVSPTKSSNLDAQVNTEQAYSQPFRY", "partner": "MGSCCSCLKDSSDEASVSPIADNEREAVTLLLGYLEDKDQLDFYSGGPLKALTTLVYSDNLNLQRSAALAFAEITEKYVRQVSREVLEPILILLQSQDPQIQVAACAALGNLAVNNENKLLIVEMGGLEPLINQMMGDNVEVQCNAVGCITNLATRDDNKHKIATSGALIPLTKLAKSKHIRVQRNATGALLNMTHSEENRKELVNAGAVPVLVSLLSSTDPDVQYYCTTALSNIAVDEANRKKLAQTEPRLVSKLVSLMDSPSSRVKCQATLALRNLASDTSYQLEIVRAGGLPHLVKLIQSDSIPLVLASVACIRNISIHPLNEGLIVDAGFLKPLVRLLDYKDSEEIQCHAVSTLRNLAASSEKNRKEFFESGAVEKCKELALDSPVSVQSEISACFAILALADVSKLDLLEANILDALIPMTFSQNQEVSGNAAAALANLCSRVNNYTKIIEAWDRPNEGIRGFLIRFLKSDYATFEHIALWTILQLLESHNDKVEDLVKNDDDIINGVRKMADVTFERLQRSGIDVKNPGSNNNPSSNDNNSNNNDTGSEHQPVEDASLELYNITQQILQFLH"}, "B2": {"name": "Vacuolar protein 8 (Saccharomyces cerevisiae), P39968 (parent)", "chain": "B1 partner", "partner": "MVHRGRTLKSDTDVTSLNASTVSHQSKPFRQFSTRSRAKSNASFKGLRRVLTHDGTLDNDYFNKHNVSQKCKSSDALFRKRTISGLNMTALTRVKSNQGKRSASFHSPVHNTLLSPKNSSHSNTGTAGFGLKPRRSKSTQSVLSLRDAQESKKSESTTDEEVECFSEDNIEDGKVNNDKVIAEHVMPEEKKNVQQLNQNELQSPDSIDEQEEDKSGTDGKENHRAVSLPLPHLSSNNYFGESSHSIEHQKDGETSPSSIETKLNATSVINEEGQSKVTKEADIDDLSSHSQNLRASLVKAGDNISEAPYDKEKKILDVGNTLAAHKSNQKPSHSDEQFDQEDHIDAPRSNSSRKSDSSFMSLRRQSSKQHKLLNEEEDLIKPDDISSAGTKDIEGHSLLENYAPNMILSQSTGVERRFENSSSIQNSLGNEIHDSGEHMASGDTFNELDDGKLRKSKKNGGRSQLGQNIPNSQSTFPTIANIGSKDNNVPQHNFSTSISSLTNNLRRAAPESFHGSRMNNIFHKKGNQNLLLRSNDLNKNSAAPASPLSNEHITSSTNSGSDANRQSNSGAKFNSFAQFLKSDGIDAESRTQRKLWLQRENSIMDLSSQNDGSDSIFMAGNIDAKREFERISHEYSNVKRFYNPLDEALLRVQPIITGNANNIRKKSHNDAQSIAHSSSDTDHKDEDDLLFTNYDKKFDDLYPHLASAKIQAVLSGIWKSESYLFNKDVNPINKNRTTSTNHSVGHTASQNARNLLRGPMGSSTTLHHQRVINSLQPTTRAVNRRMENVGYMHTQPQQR"}, "B3": {"name": "Vacuolar protein 8 (Saccharomyces cerevisiae), P39968 (parent)", "chain": "B1 partner", "partner": "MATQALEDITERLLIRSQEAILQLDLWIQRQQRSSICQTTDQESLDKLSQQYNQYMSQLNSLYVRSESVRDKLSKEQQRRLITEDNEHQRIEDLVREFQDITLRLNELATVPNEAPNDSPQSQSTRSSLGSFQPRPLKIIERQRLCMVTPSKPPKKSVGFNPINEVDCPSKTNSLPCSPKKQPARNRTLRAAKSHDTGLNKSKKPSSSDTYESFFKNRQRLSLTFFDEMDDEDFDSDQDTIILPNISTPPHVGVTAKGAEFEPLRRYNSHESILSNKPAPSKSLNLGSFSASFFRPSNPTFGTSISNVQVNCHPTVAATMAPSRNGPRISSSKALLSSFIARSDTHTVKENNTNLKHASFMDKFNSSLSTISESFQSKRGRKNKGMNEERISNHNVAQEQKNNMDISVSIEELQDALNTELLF"}, "B4": {"name": "Vacuolar protein 8 (Saccharomyces cerevisiae), P39968 (parent)", "chain": "B1 partner", "partner": "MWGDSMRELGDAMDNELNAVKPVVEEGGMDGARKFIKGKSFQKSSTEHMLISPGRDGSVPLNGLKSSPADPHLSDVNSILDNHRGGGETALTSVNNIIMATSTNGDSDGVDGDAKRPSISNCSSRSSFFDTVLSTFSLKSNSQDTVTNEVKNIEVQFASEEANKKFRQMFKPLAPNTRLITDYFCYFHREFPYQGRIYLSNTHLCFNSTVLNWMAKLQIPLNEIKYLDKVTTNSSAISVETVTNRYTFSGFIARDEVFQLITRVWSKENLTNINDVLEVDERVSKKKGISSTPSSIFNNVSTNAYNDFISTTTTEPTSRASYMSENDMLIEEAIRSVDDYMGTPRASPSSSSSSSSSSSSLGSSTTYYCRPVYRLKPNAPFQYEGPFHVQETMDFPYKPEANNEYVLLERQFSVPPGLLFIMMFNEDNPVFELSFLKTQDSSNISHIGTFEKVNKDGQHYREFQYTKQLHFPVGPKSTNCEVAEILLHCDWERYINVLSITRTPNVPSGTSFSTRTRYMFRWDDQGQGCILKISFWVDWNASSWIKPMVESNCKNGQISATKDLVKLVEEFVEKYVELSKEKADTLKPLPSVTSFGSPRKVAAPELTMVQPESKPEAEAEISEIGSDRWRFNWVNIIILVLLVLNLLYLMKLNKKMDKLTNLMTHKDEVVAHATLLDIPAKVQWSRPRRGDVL"}},
  "data": [
    {"variants_of": "B1", "details": "with vac8_yeast VAC8, P39968", "values": [
      {"variant": "MTRPPLVRGIFSLGLSVAVLKGVEKTVRKHLERQGWIEPQKVDYELIFTIDRLKNLVDNKREALTAEQPDAGELSWRKVFNFISRQSSELDTRIYVLILLLSFLLPIAWTVLDGDRETTLEDKDNDCNVDLIENERRLKHYNDGERAVLQFGKNRSEPIILSYKDMNVLEGEHEFTSKEEHSNSHLTSKSENALNQVGSEDLLGCHLEKQLEEDKNEPNGEADGEDDNNREKDCSSSSEVESQSKCRKESTAEPDSLSRDTRTTSSLKSSTSFPISFKGSIDLKSLNQPSSLLHRQVSPTKSSNLDAQVNTEQAYSQPFRY", "note": "[I295R]", "effect of a mutation on the interaction": "decreasing interaction strength"},
      {"variant": "MTRPPLVRGIFSLGLSVAVLKGVEKTVRKHLERQGWIEPQKVDYELIFTIDRLKNLVDNKREALTAEQPDAGELSWRKVFNFISRQSSELDTRIYVLILLLSFLLPIAWTVLDGDRETTLEDKDNDCNVDLIENERRLKHYNDGERAVLQFGKNRSEPIILSYKDMNVLEGEHEFTSKEEHSNSHLTSKSENALNQVGSEDLLGCHLEKQLEEDKNEPNGEADGEDDNNREKDCSSSSEVESQSKCRKESTAEPDSLSRDTRTTSSLKSSTSFPISFKGSIDLKSLNQPSSLLHIQVSPTKSSNLDRQVNTEQAYSQPFRY", "note": "[A307R]", "effect of a mutation on the interaction": "decreasing interaction strength"},
      {"variant": "MTRPPLVRGIFSLGLSVAVLKGVEKTVRKHLERQGWIEPQKVDYELIFTIDRLKNLVDNKREALTAEQPDAGELSWRKVFNFISRQSSELDTRIYVLILLLSFLLPIAWTVLDGDRETTLEDKDNDCNVDLIENERRLKHYNDGERAVLQFGKNRSEPIILSYKDMNVLEGEHEFTSKEEHSNSHLTSKSENALNQVGSEDLLGCHLEKQLEEDKNEPNGEADGEDDNNREKDCSSSSEVESQSKCRKESTAEPDSLSRDTRTTSSLKSSTSFPISFKGSIDLKSLNQPSSLLHIQVSPTKSANLDAQVNTEQAYSQPFRY", "note": "[S303A]", "effect of a mutation on the interaction": "with no effect"},
      {"variant": "MTRPPLVRGIFSLGLSVAVLKGVEKTVRKHLERQGWIEPQKVDYELIFTIDRLKNLVDNKREALTAEQPDAGELSWRKVFNFISRQSSELDTRIYVLILLLSFLLPIAWTVLDGDRETTLEDKDNDCNVDLIENERRLKHYNDGERAVLQFGKNRSEPIILSYKDMNVLEGEHEFTSKEEHSNSHLTSKSENALNQVGSEDLLGCHLEKQLEEDKNEPNGEADGEDDNNREKDCSSSSEVESQSKCRKESTAEPDSLSRDTRTTSSLKSSTSFPISFKGSIDLKSLNQPSSLLHIQVSSTKSSNLDAQVNTEQAYSQPFRY", "note": "[P299S]", "effect of a mutation on the interaction": "with no effect"}
    ]},
    {"variants_of": "B2", "details": "with tco89_yeast TCO89, Q08921", "values": [
      {"variant": "MGSCCSCLKDSSDEASVSPIADNEREAVTLLLGYLEDKDQLDFYSGGPLKALTTLVYSDNLNLQRSAALAFAEITEKYVRQVSREVLEPILILLQSQDPQIQVAACAALGNLAVNNENKLLIVEMGGLEPLINQMMGDNVEVQCNAVGCITNLATRDDNKHKIATSGALIPLTKLAKSKHIRVQRNATGALLNMTHSEENRKELVNAGAVPVLVSLLSSTDPDVQYYCTTALSNIAVDEANRKKLAQTEPRLVSKLVSLMDSPSSRVKCQATLALENLASDTSYQLEIVRAGGLPHLVKLIQSDSIPLVLASVACIENISIHPLNEGLIVDAGFLKPLVRLLDYKDSEEIQCHAVSTLENLAASSEKNRKEFFESGAVEKCKELALDSPVSVQSEISACFAILALADVSKLDLLEANILDALIPMTFSQNQEVSGNAAAALANLCSRVNNYTKIIEAWDRPNEGIRGFLIRFLKSDYATFEHIALWTILQLLESHNDKVEDLVKNDDDIINGVRKMADVTFERLQRSGIDVKNPGSNNNPSSNDNNSNNNDTGSEHQPVEDASLELYNITQQILQFLH", "note": "[R276E;R317E;R359E]", "effect of a mutation on the interaction": "with no effect"}
    ]},
    {"variants_of": "B3", "details": "with vac17_yeast VAC17, P25591", "values": [
      {"variant": "MGSCCSCLKDSSDEASVSPIADNEREAVTLLLGYLEDKDQLDFYSGGPLKALTTLVYSDNLNLQRSAALAFAEITEKYVRQVSREVLEPILILLQSQDPQIQVAACAALGNLAVNNENKLLIVEMGGLEPLINQMMGDNVEVQCNAVGCITNLATRDDNKHKIATSGALIPLTKLAKSKHIRVQRNATGALLNMTHSEENRKELVNAGAVPVLVSLLSSTDPDVQYYCTTALSNIAVDEANRKKLAQTEPRLVSKLVSLMDSPSSRVKCQATLALENLASDTSYQLEIVRAGGLPHLVKLIQSDSIPLVLASVACIENISIHPLNEGLIVDAGFLKPLVRLLDYKDSEEIQCHAVSTLENLAASSEKNRKEFFESGAVEKCKELALDSPVSVQSEISACFAILALADVSKLDLLEANILDALIPMTFSQNQEVSGNAAAALANLCSRVNNYTKIIEAWDRPNEGIRGFLIRFLKSDYATFEHIALWTILQLLESHNDKVEDLVKNDDDIINGVRKMADVTFERLQRSGIDVKNPGSNNNPSSNDNNSNNNDTGSEHQPVEDASLELYNITQQILQFLH", "note": "[R276E;R317E;R359E]", "effect of a mutation on the interaction": "with no effect"}
    ]},
    {"variants_of": "B4", "details": "with lam6_yeast LAM6, Q08001", "values": [
      {"variant": "MGSCCSCLKDSSDEASVSPIADNEREAVTLLLGYLEDKDQLDFYSGGPLKALTTLVYSDNLNLQRSAALAFAEITEKYVRQVSREVLEPILILLQSQDPQIQVAACAALGNLAVNNENKLLIVEMGGLEPLINQMMGDNVEVQCNAVGCITNLATRDDNKHKIATSGALIPLTKLAKSKHIRVQRNATGALLNMTHSEENRKELVNAGAVPVLVSLLSSTDPDVQYYCTTALSNIAVDEANRKKLAQTEPRLVSKLVSLMDSPSSRVKCQATLALENLASDTSYQLEIVRAGGLPHLVKLIQSDSIPLVLASVACIENISIHPLNEGLIVDAGFLKPLVRLLDYKDSEEIQCHAVSTLENLAASSEKNRKEFFESGAVEKCKELALDSPVSVQSEISACFAILALADVSKLDLLEANILDALIPMTFSQNQEVSGNAAAALANLCSRVNNYTKIIEAWDRPNEGIRGFLIRFLKSDYATFEHIALWTILQLLESHNDKVEDLVKNDDDIINGVRKMADVTFERLQRSGIDVKNPGSNNNPSSNDNNSNNNDTGSEHQPVEDASLELYNITQQILQFLH", "note": "[R276E;R317E;R359E]", "effect of a mutation on the interaction": "with no effect"}
    ]}
  ]
}
